# Laboratory results taken from patent US8173397B2, “Folded recombinant catalytic fragments of multidomain serine proteases, preparation and uses thereof” (TargetEx Kft., priority 2002, dated 2012).
# B1: MASP-1γB: E. coli-expressed, refolded human MASP-1 CCP1-CCP2-SP fragment, Gly298 to Asn699 with N-terminal Ala-Ser-Met-Thr tag (protein)
# chain 1: ASMTGNECPELQPPVHGKIEPSQAKYFFKDQVLVSCDTGYKVLKDNVEMDTFQIECLKDGTWSNKIPTCKIVDCRAPGELEHGLITFSTRNNLTTYKSEIKYSCQEPYYKMLNNNTGIYTCSAQGVWMNKVLGRSLPTCLPVCGLPKFSRKLMAR
# chain 2: IFNGRPAQKGTTPWIAMLSHLNGQPFCGGSLLGSSWIVTAAHCLHQSLDPEDPTLRDSDLLSPSDFKIILGKHWRLRSDENEQHLGVKHTTLHPQYDPNTFENDVALVELLESPVLNAFVMPICLPEGPQQEGAMVIVSGWGKQFLQRFPETLMEIEIPIVDHSTCQKAYAPLKKKVTRDMICAGEKEGGKDACAGDSGGPMVTLNRERGQWYLVGTVSWGDDCGKKDRYGVYSYIHHNKDWIQRVTGVRN
# How the values were obtained:
# [1] = molecular target: T1, C1-inhibitor (Homo sapiens, UniProt P05155); assay: Rate of SDS stable complex formation of 125I-labelled MASP fragments with C1-inhibitor; assay type: biochemical
# T1 construct: Purification of C1-inh and Alpha-2-Macroglobulin; from tissue
# T1 sequence (P05155 23-500): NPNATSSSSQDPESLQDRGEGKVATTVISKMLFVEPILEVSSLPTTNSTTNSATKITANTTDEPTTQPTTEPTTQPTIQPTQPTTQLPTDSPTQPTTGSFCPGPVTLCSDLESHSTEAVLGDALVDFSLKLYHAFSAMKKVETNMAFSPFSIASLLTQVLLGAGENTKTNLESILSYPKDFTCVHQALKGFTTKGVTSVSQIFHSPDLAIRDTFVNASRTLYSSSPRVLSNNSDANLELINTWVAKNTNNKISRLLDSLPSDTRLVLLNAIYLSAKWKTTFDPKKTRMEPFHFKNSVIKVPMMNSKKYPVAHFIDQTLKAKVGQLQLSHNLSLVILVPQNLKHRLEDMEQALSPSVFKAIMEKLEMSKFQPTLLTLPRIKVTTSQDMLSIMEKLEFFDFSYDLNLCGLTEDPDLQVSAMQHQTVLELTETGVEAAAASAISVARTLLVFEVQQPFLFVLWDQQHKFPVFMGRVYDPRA
# Description: To assess the rate of SDS stable complex formation between the MASP-1 and MASP-2 CCP1-CCP2-SP fragments and C1-inhibitor, the ^125I-labelled MASP fragments at concentrations ranging between 30-100 nM were incubated with 100-350 nM C1-inhibitor at 37° C. in 20 mM HEPES, 140 mM NaCl, pH 7.4 for 40 minutes. Typically 11-13 samples were taken at varying time periods. The reactions were stopped by reducing sample buffer containing 0.125 M Tris, 4.8% SDS, 8 M urea 20% glycerol, 720 mM mercaptoethanol, 0.02% bromophenol blue, pH6.8. The samples were further incubated at 37° C. for 30 minutes and run on reducing SDS-PAGE. Cleavages rates were visualized by means of autoradiography and the diminution of the reacted MASP chain was quantified using a GEL DOC 1000 instrument and Molecular Analyst Software for densitometric calculations (Bio-Rad, Hercules, Calif., USA). The kinetic constants were calculated assuming irreversible inhibition proceeded by reversible enzyme-inhibitor complex formation. Using steady-state approximation and neglecting the starting enzyme concentration compared to the starting inhibitor concentration ([I0]>>[E0]) the data was regressed on the following equation using non-linear regression methods: [E]=[E0]exp(−kobst); kobs=k2[I0]/(Ki+[I0]), where kobs is the observed pseudo-first order rate of reaction, k2 is the rate of irreversible enzyme-inhibitor complex formation and Ki is the inhibitory constant.
# [2] = molecular target: T2, C2 (Homo sapiens, UniProt P06681); assay: C2 cleavage by MASP fragments; assay type: biochemical; settings: 37° C., pH 7.4; averages of 2 to 4 experiments, standard errors
# T2 construct: from tissue
# T2 sequence (P06681 21-752): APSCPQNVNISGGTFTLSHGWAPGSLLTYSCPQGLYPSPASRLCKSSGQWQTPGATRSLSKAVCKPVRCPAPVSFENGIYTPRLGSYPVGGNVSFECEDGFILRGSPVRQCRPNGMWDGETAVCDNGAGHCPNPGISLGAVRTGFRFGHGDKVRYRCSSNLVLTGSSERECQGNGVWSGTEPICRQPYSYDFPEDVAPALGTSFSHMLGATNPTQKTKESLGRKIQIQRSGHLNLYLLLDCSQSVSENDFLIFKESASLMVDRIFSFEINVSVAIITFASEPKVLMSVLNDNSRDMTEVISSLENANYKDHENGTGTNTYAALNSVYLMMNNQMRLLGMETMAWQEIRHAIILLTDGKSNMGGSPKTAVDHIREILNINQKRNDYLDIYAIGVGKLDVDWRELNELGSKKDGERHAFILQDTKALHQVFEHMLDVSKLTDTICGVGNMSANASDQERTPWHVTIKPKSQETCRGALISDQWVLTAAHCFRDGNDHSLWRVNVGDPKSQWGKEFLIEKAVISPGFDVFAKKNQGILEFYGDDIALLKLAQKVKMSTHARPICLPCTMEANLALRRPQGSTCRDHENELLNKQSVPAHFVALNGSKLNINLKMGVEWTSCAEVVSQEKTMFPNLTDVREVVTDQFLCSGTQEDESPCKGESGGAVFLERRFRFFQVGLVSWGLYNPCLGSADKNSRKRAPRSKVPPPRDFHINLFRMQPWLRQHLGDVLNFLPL
# Description: C2, C3, C3(NH3), C4 cleavage—Serial dilutions of MASP-1 and MASP-2 fragments ranging between concentrations of 1 μM and 10 pM were incubated at 37° C. in 20 mM HEPES, 140 mM NaCl, pH 7.4 with C2, C3, C3(NH3) or C4 at typical concentrations of 0.5-1 μM. The cleavage was followed by SDS-PAGE under reducing conditions. Desirable concentrations of the MASP fragments for further detailed kinetic analysis were chosen to be where half of the protein substrates were hydrolyzed during the first 20 minutes of incubation. The protein substrates C2, C3, C3(NH3) or C4 were then incubated with the selected concentrations of the MASP fragments at 37° C. in 20 mM HEPES, 140 mM NaCl, pH 7.4. Typically 11-13 samples were taken at varying time periods but always within 50 minutes from the beginning of the reaction. Cleavages rates were quantified by measuring the diminution of the cleaved chain visualized by Coomassie stained SDS-PAGs using a GEL DOC 1000 instrument and Molecular Analyst Software for densitometric calculations (Bio-Rad, Hercules, Calif., USA). The reactions were assumed to be of the Michaelis-Menten type. In the case of C3 and C3(NH3) cleavage a further reasonable assumption of KM>>[substrate] was made. The constants KM, kcat and […] were estimated by unbiased non-linear regression methods regressing the data on the following equations: t=([S0]−[S]+KMln([S0]/[S]))/(kcat[E0]) or in the case of C3 and C3(NH3) cleavage on [S]=[S0]exp(−t[E0]kcat/KM).
molecule,measurement,setting,value
B1,"kobs with C1-inhibitor, fold less than for the MASP-2 CCP1-CCP2-SP fragment",[1],5 fold
same,"kobs, pseudo-first order rate of reaction with C1-inh","[1]; [C1-inh] = 350 nM, 37° C., pH 7.4",0.0014 s⁻¹
same,C2 kcat,[2],0.10 ± 0.07 s⁻¹
